Key:
peptide YFLMNENRYTSWNSE = target: T1, peptide YFLMNENRYTSWNSE
T1 chain: YFLMNENRYTSWNSE

[1] = target: T2, H-Trp-Phe-Tyr-Ser(PO3H2)-Pro-Arg-pNA
T2 chain: WFYSPR

B1: PhTET2 (leucyl aminopeptidase of Pyrococcus horikoshii) (protein)
chain: MEVRNMVDYELLKKVVEAPGVSGYEFLGIRDVVIEEIKDYVDEVKVDKLGNVIAHKKGEGPKVMIAAHMDQIGLMVTHIEKNGFLRVAPIGGVDPKTLIAQRFKVWIDKGKFIYGVGASVPPHIQKPEDRKKAPDWDQIFIDIGAESKEEAEDMGVKIGTVITWDGRLERLGKHRFVSIAFDDRIAVYTILEVAKQLKDAKADVYFVATVQEEVGLRGARTSAFGIEPDYGFAIDVTIAADIPGTPEHKQVTHLGKGTAIKIMDRSVICHPTIVRWLEELAKKHEIPYQLEILLGGGTDAGAIHLTKAGVPTGALSVPARYIHSNTEVVDERDVDATVELMTKALENIHELKI
time necessary to hydrolyse 50% of the peptide, at 40 °C (peptide YFLMNENRYTSWNSE): 0.5 h for PhTET2 compared to 3,9 h for MjTET at 40 °C

B2: MjTET (TET aminopeptidase of Methanocaldococcus jannaschii, product of gene MJ0555) (protein)
chain: MSVVEYLKKLSKLHGISGREDSVREFMKKELEKYCDSVEIDNFGNLIAKRGNKGKKIMIAAHMDEIGLMVKYIDDNGFLKFTKIGGIYDPTILNQKVVVHGSKGDLIGVLGSKPPHRMKEEEKTKIIKYEDMFIDIGAESREEAIEMGVNIGTWVSFLSEVYDLGKNRLTGKAFDDRVGCAVLLEVMKRLSEEDIDCQVYAVGTVQEEVGLKGARVSAFKINPDVAIALDVTIAGDHPGIKKEDAPVDLGKGPVVGIVDASGRGLIAHPKVLDMIKAVSEKYKIDVQWEVGEGGTTDATAIHLTREGIPTGVISVPARYIHTPVEVIDKRDLEKTVELVYNCIKEVNNFF
peptide hydrolysis followed by reverse phase HPLC [1]: After 5 minutes, the original peptide substrate was almost hydrolyzed and four peptide products were detected | time necessary to hydrolyse 50% of the peptide, at 20 °C (peptide YFLMNENRYTSWNSE): 75 h | time necessary to hydrolyse 50% of the peptide, at 30 °C (peptide YFLMNENRYTSWNSE): 55 h | time necessary to hydrolyse 50% of the peptide, at 40 °C (peptide YFLMNENRYTSWNSE): 3.9 h | time necessary to hydrolyse 50% of the peptide, at 50 °C (peptide YFLMNENRYTSWNSE): 1.3 h | time necessary to hydrolyse 50% of the peptide, at 60 °C (peptide YFLMNENRYTSWNSE): 1 h | time necessary to hydrolyse 50% of the peptide, at 70 °C (peptide YFLMNENRYTSWNSE): 0.6 h | time necessary to hydrolyse 50% of the peptide, at 80 °C (peptide YFLMNENRYTSWNSE): 0.25 h

Reference: patent publication US20210002623
